± gives the standard error. For some of these results: Fewer inactive variants are shown than the library holds.
B1: glmS ribozyme (parent)
chain: AUAAAAGCGCCAGAACUACAGAAAUGUAGUUGACGAGGAGGAGGUUUAUCGAAUUUUCGGCGGAUGCCUCCAAA

Columns and labels:
Details in all cases: with glucosamine-6-phosphate
[1] = variants of: B1; assay: kcat; higher = faster cleavage; RNA array
Method in brief: (§1)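 Barcoded ribozyme variants on sequenced MiSeq chips were transcribed in situ by E. coli RNA polymerase and followed at 37 °C through a hybridised Cy3 probe. Glucosamine-6-phosphate at 40 μM to 10 mM in HEPES/KCl/Mg(OAc)2 buffer was flowed in, and tiles were imaged over ~14 h. Signals were normalised to baseline and to non-cleaving reference variants, and per-tile medians were fit to one- or two-exponential decays to give kobs. Weighted Michaelis–Menten fits across concentrations gave kcat and KM.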

[2] = variants of: B1; assay: self-cleavage kobs at 160 uM GlcN6P; higher = faster cleavage; RNA array
Method in brief: as §1

[3] = variants of: B1; assay: self-cleavage kobs at 640 uM GlcN6P; higher = faster cleavage; RNA array
Method in brief: as §1

[4] = variants of: B1; assay: self-cleavage kobs at 2500 uM GlcN6P; higher = faster cleavage; RNA array
Method in brief: as §1

[5] = variants of: B1; assay: self-cleavage kobs at 10000 uM GlcN6P; higher = faster cleavage; RNA array
Method in brief: as §1

[6] = variants of: B1; assay: KM; higher = weaker cofactor use; RNA array
Method in brief: as §1

[7] = variants of: B1; assay: self-cleavage kobs at 40 uM GlcN6P; higher = faster cleavage; RNA array
Method in brief: as §1

Variant	kcat [1] [s⁻¹]	self-cleavage kobs at 160 uM GlcN6P [2] [s⁻¹]	self-cleavage kobs at 640 uM GlcN6P [3] [s⁻¹]	self-cleavage kobs at 2500 uM GlcN6P [4] [s⁻¹]	self-cleavage kobs at 10000 uM GlcN6P [5] [s⁻¹]	KM [6] [µM]	self-cleavage kobs at 40 uM GlcN6P [7] [s⁻¹]
A14G U31A C67G	0.00052 ± 0.00021	0.000163 ± 3.6e-05	0.000237 ± 6e-05	0.000368 ± 0.00011	0.000966 ± 0.0003	–	–
A6G C71U	6.03e-05 ± 2.1e-06	–	–	3.33e-05 ± 8e-06	5.1e-05 ± 6.3e-06	1890 ± 260	–
C10U U45A G51U C67A	–	–	–	–	–	–	< 1e-05
C16U A53C	–	0.000234 ± 6.4e-05	0.00248 ± 0.00046	0.00358 ± 0.00061	0.00687 ± 0.0013	–	0.000147 ± 2.2e-05
G32C A53U	0.000101 ± 5.9e-06	< 1e-05	–	2.59e-05 ± 6.8e-06	5.79e-05 ± 5e-06	7510 ± 930	< 1e-05
G32A U49G	5.97e-05 ± 1.4e-06	–	2.83e-05 ± 1.2e-05	4.58e-05 ± 1.1e-05	5.56e-05 ± 8.3e-06	741 ± 85	< 1e-05
C8U U30G	–	< 1e-05	< 1e-05	–	< 1e-05	–	< 1e-05
C11A G44U G59U C67A	–	–	–	–	0.00946 ± 0.002	–	0.000322 ± 8.1e-05
C61U G63A	–	< 1e-05	< 1e-05	–	< 1e-05	–	< 1e-05
G7A A14C	1.34e-05 ± 5.9e-06	–	–	–	–	–	< 1e-05
U47A U65G U69C	0.00209 ± 0.00057	0.000128 ± 3.1e-05	–	0.00114 ± 0.00024	0.00154 ± 0.0005	2700 ± 1100	–
A14G U57G	0.000171 ± 2.6e-06	–	3.71e-05 ± 8e-06	8.67e-05 ± 9.4e-06	0.000139 ± 1.3e-05	2380 ± 88	–
A24U	–	–	–	–	–	–	0.002 ± 0.0003
U30C G62C	–	–	< 1e-05	–	< 1e-05	–	< 1e-05
C10A A33C	–	< 1e-05	< 1e-05	< 1e-05	< 1e-05	–	< 1e-05
C58G C68U	4.76e-05 ± 7e-06	7.05e-05 ± 1.9e-05	5.45e-05 ± 1.2e-05	4.14e-05 ± 1.3e-05	4.34e-05 ± 7.8e-06	–	–
C16G A64G	0.00475 ± 0.0023	0.000468 ± 0.00021	0.00103 ± 0.00014	0.00156 ± 0.00036	0.00584 ± 0.00071	–	0.000127 ± 1.8e-05
G38U U65G	–	–	–	–	–	107 ± 46	–

— the supplement of paper PMC7125110
